Data taken from US20140234331A1 (published 2014).

B1: 1E2 (human anti-CTLA-4 monoclonal antibody) (antibody, V domains shown)
VH: QVQLVESGGGVVQPGRSLRLSCAASGFTFSSYGMHWVRQAPGKGLEWVAVIWYDGSNKYYADSVKGRFTISRDNSKNTLYLQMNSLRAEDTAVFYCARAPNYIGAFDVWGQGTMVTVSS
VL: DIQMTQSPSSLSASVGDRVTITCRASQGISSWLAWYQQKPEKAPKSLIYAASSLQSGVPSRFSGSGSGTDFTLTISSLQPEDFATYYCQQYNSYPPTFGQGTKVEIK

Assays:
[1] = biological target: Macaque CTLA-4 expressed on transfected T-cells (macaque); experiment: flow cytometry (FACScan) on cell line expressing recombinant macaque CTLA-4
[2] = biological target: T1, Recombinant CTLA-4 fusion protein comprising the extracellular domain of human CTLA-4 (R&D Systems Cat. … (human, UniProt P16410 36-161)); experiment: competitive ELISA with biotin labeled and unlabeled antibodies
T1 construct: extracellular domain; Bought protein; also called recombinant human CTLA-4 fusion protein; soluble CTLA-4; not shown: Factor Xa cleavage site and fusion partner (called Ig)
T1 sequence (looked up): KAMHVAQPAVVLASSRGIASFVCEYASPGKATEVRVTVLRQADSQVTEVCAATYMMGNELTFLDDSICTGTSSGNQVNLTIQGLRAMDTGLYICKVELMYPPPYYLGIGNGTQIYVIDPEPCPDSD
Description: Competitive ELISAs were done with biotin labeled and unlabeled antibodies to determine CTLA-4 epitope specificity. Four anti-CTLA-4 epitope binding groups were identified among the human antibodies, and an additional two epitopes were defined by the commercial murine monclonal antibodies BNI3 (Pharmingen, San Diego, Calif.), and 8H5 (Ancell Corp. Bayport, Minn.).

Molecule	MFI [1]	binding result [2]
isotype control (Table 5) (antibody)	4 MFI	–
B1	–	binds
